The source of these data is the Immune Epitope Database (IEDB).

A value given as a limit tells only on which side of the number the result lay.

What all share (experiment): IEDB peptide-MHC binding, purified MHC/competitive/radioactivity; filed as Kd, often an IC50 or EC50 that approximates it; ≥ and ≤ were set here for values at or beyond the usual limits of such assays
Conditions in all cases: source organism: Influenza A virus

Experiment [1] has as its target HLA-A*03:01.
The target in experiment [2] is HLA-A*11:01.
Experiment [3] concerns the target HLA-A*31:01.
Experiment [4] addresses HLA-A*33:01.
The target in experiment [5] is HLA-A*68:01.
Experiment [6] concerns the target HLA-A*02:01.
Experiment [7] has as its target HLA-A*02:02.
For experiment [8], the target named is HLA-A*02:03.
Experiment [9] concerns the target HLA-A*02:06.
Experiment [10] deals with HLA-A*68:02.
Experiment [11] concerns the target HLA-A*23:01.
Experiment [12] addresses HLA-A*24:02.
Experiment [13] has as its target HLA-A*29:02.
In experiment [14] the target is HLA-A*30:02.
The target of experiment [15] is HLA-B*18:01.
For experiment [16], the target named is HLA-B*40:01.
Experiment [17] deals with HLA-B*40:02.
In experiment [18] the target is HLA-B*44:02.
The target of experiment [19] is HLA-B*44:03.
The target in experiment [20] is HLA-B*45:01.
For experiment [21], the target named is HLA-B*35:01.
The target in experiment [22] is HLA-B*51:01.
Experiment [23] addresses HLA-B*53:01.
Experiment [24] has as its target HLA-B*54:01.
The target in experiment [25] is HLA-A*01:01.

What is called Kd is the equilibrium constant for the complex coming apart.

For the sequence ASCMGLIYNR, the Kd in experiment [1] was 816 nM; in experiment [2], 32 nM; in [3] it was 7 nM; in [4] it was 445 nM; in experiment [5], 391 nM.
Take CLPACVYGL: the Kd in experiment [6] amounted to 79 nM; in experiment [7], 4 nM; in [8], 143 nM; in experiment [9], 95 nM; in experiment [10], 3770 nM.
For the sequence FQGRGVFEL, the Kd in experiment [6] is 143 nM; in experiment [7], 7 nM; in [8], 307 nM; in experiment [9], 7 nM; in [10], at least 10000 nM.
Turning to FQVDCFLWHV, the Kd in experiment [6] was 4 nM; in experiment [7], 4 nM; in [8] it was 3 nM; in experiment [9], at most 1 nM; in experiment [10], 219 nM.
For FYIQMCTEL, the equilibrium dissociation constant (Kd) in [11] was 8 nM; in experiment [12], 24 nM; in experiment [13], 1560 nM; in experiment [14], at least 10000 nM.
As for FYRYGFVANF, the Kd in [11] was 13 nM; in experiment [12], 17 nM; in [13], 812 nM; in [14], at least 10000 nM.
As for GERQNATEI, the Kd is at least 10000 nM in experiment [15]; 199 nM in [16]; 53 nM in experiment [17]; at least 10000 nM in experiment [18]; at least 10000 nM in experiment [19]; 304 nM in [20].
As to GTFEFTSFFY, the dissociation constant Kd in experiment [1] was 16 nM; in experiment [2], at most 1 nM; in [3], 242 nM; in [4] it was 5410 nM; in experiment [5], 100 nM.
The corresponding values for KFLPDLYDYK are 255 nM, 22 nM, 2410 nM, at least 10000 nM and 507 nM.
The corresponding values for KLVGINMSKK are 14 nM, 315 nM, 518 nM, at least 10000 nM and 1610 nM.
With KSCLPACVY, the Kd was at least 10000 nM in experiment [13] and 43 nM in [14].
Regarding LPRRSGAAGA, the Kd was at least 10000 nM in experiment [21], at least 10000 nM in experiment [22], at least 10000 nM in [23] and 47 nM in experiment [24].
NMLSTVLGV: the dissociation constant (Kd) in experiment [7] was 5 nM; in experiment [8], 11 nM; in experiment [9], 3 nM; in experiment [10], 1060 nM.
On to QEIRTFSFQL, for which the Kd came to 515 nM in [15]; 135 nM in experiment [16]; 68 nM in [17]; 102 nM in experiment [18]; 431 nM in [19]; 380 nM in experiment [20].
As to RLFFKCIYRR, the dissociation constant Kd in [1] came to 135 nM; in experiment [2], 294 nM; in experiment [3] it was 5 nM; in experiment [4], 238 nM; in experiment [5] it was 88 nM.
SEQAAEAMEV: the Kd in [15] was 1900 nM; in experiment [16] it was 2670 nM; in experiment [17], 85 nM; in [18], 2640 nM; in experiment [19], 7670 nM; in experiment [20], 35 nM.
Take SFSFGGFTFK: in experiment [4], the Kd stood at 85 nM.
In the case of SVQPTFSVQR, the Kd is at least 10000 nM in [1]; 37 nM in [2]; 21 nM in [3]; 181 nM in experiment [4]; 84 nM in experiment [5].
With SVQRNLPFER, the dissociation constant Kd is at least 10000 nM in experiment [1]; 411 nM in [2]; 104 nM in experiment [3]; 321 nM in [4]; 19 nM in experiment [5].
Take TEVETYVLSI: the Kd in experiment [15] worked out at 136 nM; in experiment [16], 133 nM; in experiment [17] it was 195 nM; in experiment [18], 6880 nM; in [19], 247 nM; in experiment [20] it was 504 nM.
As to VLRGFLILGK, the Kd in experiment [1] was 10 nM; in experiment [2] it was 460 nM; in experiment [3] it was 85 nM; in experiment [4], at least 10000 nM; in [5], 1160 nM.
On to YSHGTGTGY, for which the Kd amounted to 199 nM in experiment [25], 486 nM in [13] and 131 nM in experiment [14].
